Results reported in patent publication US20230355720A1, “PHARMACEUTICAL COMPOSITION FOR PREVENTING OR TREATING BONE DISEASES, COMPRISING TRIPLE AGONIST OR CONJUGATE THEREOF HAVING ACTIVITY WITH RESPECT TO ALL OF GLUCAGON, GLP-1 AND GLP RECEPTORS” (HANMI PHARM. CO., LTD., priority 2020, published 2023).
Bridge positions count the residues as written; N and C are the ends. Square brackets hold non-standard residues; d marks the D form. Ends that are not written are not given here. * marks the point of attachment. Acetyl(2-(4-imidazolyl)) = O=C(Cc1c[nH]cn1)*; Aib = CC(C)(N)C(=O)O

T1: human GIP receptor (human, UniProt P48546 22-466)
T1 sequence (looked up): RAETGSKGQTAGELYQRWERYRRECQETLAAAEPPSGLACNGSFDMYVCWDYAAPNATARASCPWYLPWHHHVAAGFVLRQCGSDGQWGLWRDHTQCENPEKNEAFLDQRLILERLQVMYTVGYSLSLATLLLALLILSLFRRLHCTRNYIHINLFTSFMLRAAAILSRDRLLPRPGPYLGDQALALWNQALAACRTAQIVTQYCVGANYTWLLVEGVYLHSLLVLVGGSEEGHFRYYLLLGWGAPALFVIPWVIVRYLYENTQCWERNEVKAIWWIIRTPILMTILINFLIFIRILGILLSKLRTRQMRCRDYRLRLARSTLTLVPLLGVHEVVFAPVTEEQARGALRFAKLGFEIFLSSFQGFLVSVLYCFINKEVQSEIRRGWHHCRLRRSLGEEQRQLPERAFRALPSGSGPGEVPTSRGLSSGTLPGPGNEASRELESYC


Columns and labels:
Experiment in all cases: cell-based or functional assay
human GLP-1 receptor = human GLP-1 receptor (human, UniProt P43220 24-463)
human GCG receptor = human GCG receptor (human, UniProt P47871 26-477)
human GIP receptor = biological target: T1, human GIP receptor

Sequence of human GCG receptor (P47871 26-477): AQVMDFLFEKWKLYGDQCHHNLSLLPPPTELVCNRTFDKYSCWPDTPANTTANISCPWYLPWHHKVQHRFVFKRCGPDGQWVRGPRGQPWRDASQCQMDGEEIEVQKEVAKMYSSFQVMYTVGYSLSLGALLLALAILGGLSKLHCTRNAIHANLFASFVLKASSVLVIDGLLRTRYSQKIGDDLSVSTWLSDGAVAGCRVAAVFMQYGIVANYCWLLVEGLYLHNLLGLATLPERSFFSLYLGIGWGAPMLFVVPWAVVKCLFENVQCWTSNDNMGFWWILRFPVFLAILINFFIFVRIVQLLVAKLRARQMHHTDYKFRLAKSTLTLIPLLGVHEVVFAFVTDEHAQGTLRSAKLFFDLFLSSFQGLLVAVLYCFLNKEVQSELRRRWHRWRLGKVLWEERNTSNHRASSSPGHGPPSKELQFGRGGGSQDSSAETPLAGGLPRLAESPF

| Binder | In vitro activity (%) compared with native peptide, vs GLP-1 (human GLP-1 receptor) [%] | In vitro activity (%) compared with native peptide, vs Glucagon (human GCG receptor) [%] | In vitro activity (%) compared with native peptide, vs GIP (human GIP receptor) [%] |
| --- | --- | --- | --- |
| H[Aib]QGTFTSDYSKYLDEKACKDFVQWLLDGGPSSGAPPPS (bridge 16-20; not fully specified) [triple agonist of SEQ ID NO: 32] | 151 | 1.7 | 8.8 |
| H[Aib]QGTFTSDVSSYLLGQAAKQFIAWLVKGGGPSSGAPPPSC (not fully specified) [triple agonist of SEQ ID NO: 3] | 1.8 | < 0.1 | < 0.1 |
| [Acetyl(2-(4-imidazolyl))]GEGTFISDLSKYMDEQAVQLFVEWLMAGGPSSGAPPPSHG (not fully specified) [triple agonist of SEQ ID NO: 12] | 0.4 | < 0.1 | < 0.1 |
| Y[Aib]QGTFTSDYSKCLDEKRAKEFVQWLLDHHPSSGQPPPS (bridge 16-20) [triple agonist of SEQ ID NO: 22] | 20.1 | 140 | 59.7 |
| [Acetyl(2-(4-imidazolyl))]GQGTFTSDLSIQYEEEAQQDFVEWLKDTGPSSGAPPPSHG (not fully specified) [triple agonist of SEQ ID NO: 20] | < 0.1 | < 0.1 | < 0.1 |
| [Acetyl(2-(4-imidazolyl))]GQGTFTSDYSIQLDEIAVRDFVEWLKNGGPSSGAPPPSHG (not fully specified) [triple agonist of SEQ ID NO: 14] | 28 | < 0.1 | < 0.1 |
| H[Aib]QGTFTSDYSKYLDEKRAQEFVCWLLAQKGKKNDWKHNIT (not fully specified) [triple agonist of SEQ ID NO: 28] | 17.2 | 1.6 | < 0.1 |
| H[Aib]QGTFTSDYSIAMDEIHQKDFVNWLLAQKC (bridge 16-20; not fully specified) [triple agonist of SEQ ID NO: 33] | 24.5 | < 0.1 | 10.4 |
| [Acetyl(2-(4-imidazolyl))]GQGTFTSDLSKQMDSEAQQLFIEWLKNGGPSSGAPPPSHG (not fully specified) [triple agonist of SEQ ID NO: 16] | 2.1 | < 0.1 | < 0.1 |
| H[Aib]QGTFTSDYSKYLDEKAAKEFVQWLLNTC (bridge 16-20; not fully specified) [triple agonist of SEQ ID NO: 29] | 38.5 | 6 | < 0.1 |
| Y[Aib]QGTFTSDYSKYLDECRAKEFVQWLLAQKGKKNDWKHNIT (bridge 16-20; not fully specified) [triple agonist of SEQ ID NO: 23] | 4.01 | 9.3 | < 0.1 |
| Y[Aib]QGTFTSDYSKYLDECRAKEFVQWLKNGGPSSGAPPPS (bridge 16-20) [triple agonist of SEQ ID NO: 24] | 41.2 | 9.3 | < 0.1 |
| [Acetyl(2-(4-imidazolyl))]GEGTFISDYSIQLDEIAVQDFVEWLLAQKPSSGAPPPSHG [triple agonist of SEQ ID NO: 13] | < 0.1 | < 0.1 | < 0.1 |
| H[Aib]QGTFTSDCSKYLDERAAQDFVQWLLDGGPSSGAPPPS (not fully specified) [triple agonist of SEQ ID NO: 25] | 82.6 | 0.1 | < 0.1 |
| [Acetyl(2-(4-imidazolyl))]GEGTFTSDLSKYLDSRRQQLFVQWLKAGGPSSGAPPPSHG (not fully specified) [triple agonist of SEQ ID NO: 11] | 1.4 | < 0.1 | < 0.1 |
| [Acetyl(2-(4-imidazolyl))]GQGTFTSDLSIQYDSEHQRDFIEWLKDTGPSSGAPPPSHG (not fully specified) [triple agonist of SEQ ID NO: 19] | < 0.1 | < 0.1 | < 0.1 |
| H[Aib]QGTFTSDYSKYLDEKACKEFVQWLLAQ (bridge 16-20) [triple agonist of SEQ ID NO: 31] | 135 | 2.2 | 2.4 |
| [Acetyl(2-(4-imidazolyl))]GQGTFTSDLSKQMDSERAREFIEWLKNTGPSSGAPPPSHG (not fully specified) [triple agonist of SEQ ID NO: 18] | < 0.1 | < 0.1 | < 0.1 |
| H[Aib]QGTFTSDVSSYLDGQAQKEFIAWLVKGC (not fully specified) [triple agonist of SEQ ID NO: 2] | 5.9 | < 0.1 | < 0.1 |
| H[Aib]QGTFTSDYSKYLDERACQDFVQWLLDQGGPSSGAPPPS (not fully specified) [triple agonist of SEQ ID NO: 27] | 83.1 | 0.8 | 0.9 |
| [Acetyl(2-(4-imidazolyl))]GQGTFTSDLSKQMDEERAREFIEWLLAQKPSSGAPPPSHG (not fully specified) [triple agonist of SEQ ID NO: 17] | 0.2 | < 0.1 | < 0.1 |
| H[Aib]QGTFTSDCSKYLDSRAAQDFVQWLLDGGPSSGAPPPS (not fully specified) [triple agonist of SEQ ID NO: 26] | 64.5 | 0.2 | < 0.1 |
| Y[Aib]QGTFTSDYSKYLDECRAKEFVQWLLDHHPSSGQPPPS (bridge 16-20) [triple agonist of SEQ ID NO: 21] | 17.8 | 267 | 22.7 |
